In patent US20210040184A1 (ATRECA, published 2021):

B1: Germ17 (antibody, V domains shown)
VH: QVDLVQSGAVVKKPGDSVRVSCEAQGYRFPDYIIHWIRRAPGQGPEWMGWMNPMGGQVNIPWKFQGRVSMTRDTSIETAYMDLRGLRSDDTAVYYCVRDRSNGSGKRFESSNWFLDLWGRGTLVTVSS
VL: QSALTQPRSVSGSPGQSVTISCTGTHNLVSWCQHHPGKAPKLMIYDFNKRPSGVPDRFSGSGSGGTASLTISGLQAEDEAEYFCWAYEAFGGGTKLTVL
B2: CysCA (antibody, V domains shown)
VH: ADLVQSGAVVKKPGDSVRISCEAQGYRFPDYIIHWIRRAPGQGPEWMGWMNPMGGQVNIPWKFQGRVSMTRDTSIETAFLDLRGLKSDDTAVYYCVRDRSNGSGKRFESSNWFLDLWGRGTAVTIQS
VL: QSALTQPRSVSASPGQSVTISCTGTHNLVSWAQHQPGRAPKLLIYDFNKRPSGVPDRFSGSGSGGTASLTITGLQDDDDAEYFCWAYEAFGGGTKLTVL
B3: Germ18 (antibody, V domains shown)
VH: QVQLVQSGAEVKKPGASVKVSCEASGYRFPDYIIHWIRRAPGQGPEWMGWMNPMGGQVNIPWKFQGRVSMTRDTSIETAYMELRGLRSDDTAVYYCVRDRSNGSGKRFESSNWFLDLWGRGTLVTVSS
VL: QSALTQPRSVSGSPGQSVTISCTGTHNLVSWCQHQPGRAPKLLIYDFNKRPSGVPDRFSGSGSGGTASLTISGLQDEDDAEYFCWAYEAFGGGTKLTVL
B4: Germ23_NglycoSA_CysCV (antibody, V domains shown)
VH: QVQLVQSGAEVKKPGASVKVSCEASGYRFPDYIIHWIRRAPGQGPEWMGWMNPMGGQVNIPWKFQGRVSMTRDTSIETAYMELRGLRSDDTAVYYCVRDRSNGAGKRFESSNWFLDLWGRGTLVTVSS
VL: QSALTQPRSVSGSPGQSVTISCTGTHNLVSWVQHHPGKAPKLMIYDFNKRPSGVPDRFSGSGSGGTASLTISGLQAEDEAEYFCWAYEAFGGGTKLTVL
B5: Germ6 (antibody, V domains shown)
VH: ADLVQSGAVVKKPGDSVRVSCEAQGYRFPDYIIHWIRRAPGQGPEWMGWMNPMGGQVNIPWKFQGRVSMTRDTSIETAYLDLRGLKSDDTAVYYCVRDRSNGSGKRFESSNWFLDLWGRGTAVTVQS
VL: QSALTQPRSVSGSPGQSVTISCTGTHNLVSWCQHQPGRAPKLLIYDFNKRPSGVPDRFSGSGSGGTASLTISGLQDEDDAEYFCWAYEAFGGGTKLTVL
B6: Germ12_NglycoSA_CysCA (antibody, V domains shown)
VH: QVDLVQSGAVVKKPGDSVRVSCEAQGYRFPDYIIHWIRRAPGQGPEWMGWMNPMGGQVNIPWKFQGRVSMTRDTSIETAYMDLRGLRSDDTAVYYCVRDRSNGAGKRFESSNWFLDLWGRGTLVTVSS
VL: QSALTQPRSVSGSPGQSVTISCTGTHNLVSWAQHQPGRAPKLLIYDFNKRPSGVPDRFSGSGSGGTASLTISGLQDEDDAEYFCWAYEAFGGGTKLTVL
B7: Hydro2 (antibody, V domains shown)
VH: ADLVQSGAVVKKPGDSVRISCEAQGYRFPDYIIHWIRRAPGQGPEWMGWMNPMGGQVNIPQKFQGRVSMTRDTSIETAFLDLRGLKSDDTAVYYCVRDRSNGSGKRFESSNWFLDLWGRGTAVTIQS
VL: QSALTQPRSVSASPGQSVTISCTGTHNLVSWCQHQPGRAPKLLIYDFNKRPSGVPDRFSGSGSGGTASLTITGLQDDDDAEYFCWAYENFGGGTKLTVL
B8: Germ23 (antibody, V domains shown)
VH: QVQLVQSGAEVKKPGASVKVSCEASGYRFPDYIIHWIRRAPGQGPEWMGWMNPMGGQVNIPWKFQGRVSMTRDTSIETAYMELRGLRSDDTAVYYCVRDRSNGSGKRFESSNWFLDLWGRGTLVTVSS
VL: QSALTQPRSVSGSPGQSVTISCTGTHNLVSWCQHHPGKAPKLMIYDFNKRPSGVPDRFSGSGSGGTASLTISGLQAEDEAEYFCWAYEAFGGGTKLTVL
B9: Germ12 (antibody, V domains shown)
VH: QVDLVQSGAVVKKPGDSVRVSCEAQGYRFPDYIIHWIRRAPGQGPEWMGWMNPMGGQVNIPWKFQGRVSMTRDTSIETAYMDLRGLRSDDTAVYYCVRDRSNGSGKRFESSNWFLDLWGRGTLVTVSS
VL: QSALTQPRSVSGSPGQSVTISCTGTHNLVSWCQHQPGRAPKLLIYDFNKRPSGVPDRFSGSGSGGTASLTISGLQDEDDAEYFCWAYEAFGGGTKLTVL

How the values were obtained:
Test in all cases: cell-based or functional assay
[1] = target: HIV-1 X1632_S2_B10 envelope (Env) on Env.IMC.LucR virus (HIV-1 clade G)
[2] = target: HIV-1 REJO4541.67 envelope (Env) on Env.IMC.LucR virus (HIV-1 clade B)
[3] = target: HIV-1 DU422.1 envelope (Env) on Env.IMC.LucR virus (HIV-1 clade C)
[4] = target: HIV-1 AC10.0.29 envelope (Env) on Env.IMC.LucR virus (HIV-1 clade B)
[5] = target: HIV-1 CAP45.2.00.G3 envelope (Env) on Env.IMC.LucR virus (HIV-1 clade C)
[6] = target: HIV-1 DU172.17 envelope (Env) on Env.IMC.LucR virus (HIV-1 clade C)
[7] = target: HIV-1 CNE20 envelope (Env) on Env.IMC.LucR virus (HIV-1 clade BC)

Row | Binder | IC50 of virus neutralization (TZM-BL, luciferase) [1] | IC50 of virus neutralization (TZM-BL, luciferase) [2] | IC50 of virus neutralization (TZM-BL, luciferase) [3] | IC50 of virus neutralization (TZM-BL, luciferase) [4] | IC50 of virus neutralization (TZM-BL, luciferase) [5] | IC50 of virus neutralization (TZM-BL, luciferase) [6] | IC50 of virus neutralization (TZM-BL, luciferase) [7]
1 | B1 | > 50 mg/L | 0.033 mg/L | > 50 mg/L | > 50 mg/L | 0.037 mg/L | 0.117 mg/L | 0.081 mg/L
2 | B2 | > 50 mg/L | ≤ 0.02 mg/L | > 50 mg/L | > 50 mg/L | 0.035 mg/L | 0.169 mg/L | 0.034 mg/L
3 | B3 | > 50 mg/L | 0.039 mg/L | > 50 mg/L | > 50 mg/L | 0.036 mg/L | 0.223 mg/L | 0.081 mg/L
4 | B4 | > 50 mg/L | ≤ 0.02 mg/L | > 50 mg/L | > 50 mg/L | 0.05 mg/L | 0.831 mg/L | 0.064 mg/L
5 | B5 | > 50 mg/L | 0.062 mg/L | > 50 mg/L | > 50 mg/L | 0.135 mg/L | 0.102 mg/L | 0.091 mg/L
6 | B6 | > 50 mg/L | 0.028 mg/L | > 50 mg/L | > 50 mg/L | 0.042 mg/L | 0.088 mg/L | 0.062 mg/L
7 | B7 | > 50 mg/L | ≤ 0.02 mg/L | > 50 mg/L | > 50 mg/L | 0.039 mg/L | 0.131 mg/L | 0.049 mg/L
8 | B8 | > 50 mg/L | 0.037 mg/L | > 50 mg/L | > 50 mg/L | 0.035 mg/L | 0.182 mg/L | 0.066 mg/L
9 | B9 | > 50 mg/L | 0.092 mg/L | > 50 mg/L | > 50 mg/L | 0.063 mg/L | 0.267 mg/L | 0.244 mg/L
